Data set [1] can be described thus: Analytical size exclusion chromatography of XTEN fusion proteins. Format: physicochemical. The conditions noted are these: for Apparent MW: SEC, calibrated with globular protein standards; for Apparent Molecular Weight Factor: apparent MW relative to actual MW; for RH: hydrodynamic radius from SEC. The procedure:
Size exclusion chromatography analyses were performed on fusion proteins containing various therapeutic proteins and unstructured recombinant proteins of increasing length. […] Chromatogram profiles were monitored using OD214 nm and OD280 nm Column calibration for all assays were performed using a size exclusion calibration standard from BioRad; the markers include thyroglobulin (670 kDa), bovine gamma-globulin (158 kDa), chicken ovalbumin (44 kDa), equine myoglobuin (17 kDa) and vitamin B12 (1.35 kDa). […] Based on the SEC analyses for all constructs evaluated, including a […] composition, the apparent molecular weights, the apparent molecular weight factor (expressed as the ratio of apparent molecular weight to the calculated molecular weight) and the hydrodynamic radius (RH in nm) are shown in Table 16.
Background: SEC sorts molecules by how far they enter the pores of the column.

The subject of the next data set is activation of factor X. Description: Chromogenix Coamatic Factor VIII activity assay. Format: biochemical. The text has this:
BDD FVIII and FVIII-XTEN fusion protein constructs pBC0114, pBC0135, pBC0136, pBC0137, pBC0145, pBC0146, and pBC0149, in various configurations, including XTEN_AE288 and AG288 inserted at the C-terminus of the FVIII BDD sequence and FVIII-XTEN fusion proteins with AE42 and AE288 inserted after residue 745 (or residue 743) and before residue 1640 (or residue 1638) of the B-domain […], were expressed in transiently transfected Freestyle 293 cells, as described above, and tested for procoagulant activity. […] The assay was performed according to manufacturer's instructions using the end-point method, which was measured spectrophotometrically at OD405 nm A standard curve was created using purified FVIII protein at concentrations of 250, 200, 150, 100, 75, 50, 37.5, 25, 12.5, 6.25, 3.125 and 1.56 mU/ml. […] The cell culture media of the FVIII-XTEN constructs were obtained as described, above, and were tested in replicates at 1:50, 1:150, and 1:450 dilutions and the activity of each was calculated in U/ml.
Using the Chromogenix Coamatic Factor VIII (Chromogenix, cat#82258563) the activity of FVIII is assessed as follows. […] The color is then read spectrophotometrically at 405 nm The generated factor Xa and thus the intensity of color is proportional to the factor VIII activity in the sample. […]

The test system of a further data set is FVIII activity. Description: Two-stage chromogenic FVIII activity assay of transient transfection cell culture supernatant. Format: biochemical. To be noted: HEK293 cell culture supernatant, 5-day transient transfection. The procedure: Two FVIII-XTEN fusion proteins, FVIII-AE288 (F8X-40) and FVIII-AG288 (F8X-41), contain an AE288 XTEN or an […] XTEN, respectively, fused at the C-terminus of FVIII C2 domain. To determine if FVIII activity was retained after XTEN fusion, HEK293 cells were transfected separately with these two FVIII-XTEN fusion constructs by using polyethylenimine (PEI) in serum-free medium. At 3 or 5 days post-transfection, the cell culture supernatant was tested for FVIII activity by a two-stage chromogenic assay. Purified recombinant FVIII, calibrated against WHO international standard, was used to establish the standard curve in the chromogeinic assay. […] (Table 26).

B1: AC404 (protein)
chain: AVFVTQEEAHGVLHRRRRANAFLEELRPGSLERECKEEQCSFEEAREIFKDAERTKLFWISYSDGDQCASSPCQNGGSCKDQLQSYICFCLPAFEGRNCETHKDDQLICVNENGGCEQYCSDHTGTKRSCRCHEGYSLLADGVSCTPTVEYPCGKIPILEKRNASKPQGRIVGGKVCPKGECPWQVLLLVNGAQLCGGTLINTIWVVSAAHCFDKIKNWRNLIAVLGEHDLSEHDGDEQSRRVAQVIIPSTYVPGTTNHDIALLRLHQPVVLTDHVVPLCLPERTFSERTLAFVRFSLVSGWGQLLDRGATALELMVLNVPRLMTQDCLQQSRKVGDSPNITEYMFCAGYSDGSKDSCKGDSGGPHATHYRGTWYLTGIVSWGQGCATVGHFGVYTRVSQYIEWLQKLMRSEPRPGVLLRAPFPGSPGSPAGSPTSTEEGTSESATPESGPGTSTEPSEGSAPGSPAGSPTSTEEGTSTEPSEGSAPGTSTEPSEGSAPGTSESATPESGPGSEPATSGSETPGSEPATSGSETPGSPAGSPTSTEEGTSESATPESGPGTSTEPSEGSAPGTSTEPSEGSAPGSPAGSPTSTEEGTSTEPSEGSAPGTSTEPSEGSAPGTSESATPESGPGTSTEPSEGSAPGTSESATPESGPGSEPATSGSETPGTSTEPSEGSAPGTSTEPSEGSAPGTSESATPESGPGTSESATPESGPGSPAGSPTSTEEGTSESATPESGPGSEPATSGSETPGTSESATPESGPGTSTEPSEGSAPGTSTEPSEGSAPGTSTEPSEGSAPGTSTEPSEGSAPGTSTEPSEGSAPGTSTEPSEGSAPGSPAGSPTSTEEGTSTEPSEGSAPGTSESATPESGPGSEPATSGSETPGTSESATPESGPGSEPATSGSETPGTSESATPESGPGTSTEPSEGSAPGTSESATPESGPGSPAGSPTSTEEGSPAGSPTSTEEGSPAGSPTSTEEGTSESATPESGPGTSTEPSEGSAPGTSESATPESGPGSEPATSGSETPGTSESATPESGPGSEPATSGSETPGTSESATPESGPGTSTEPSEGSAPGSPAGSPTSTEEGTSESATPESGPGSEPATSGSETPGTSESATPESGPGSPAGSPTSTEEGSPAGSPTSTEEGTSTEPSEGSAPGTSESATPESGPGTSESATPESGPGTSESATPESGPGSEPATSGSETPGSEPATSGSETPGSPAGSPTSTEEGTSTEPSEGSAPGTSTEPSEGSAPGSEPATSGSETPGTSESATPESGPGTSTEPSEGSAPGSSS
Regarding B1, in data set [1], the “Apparent MW” value is recorded as 1900 kDa, the “Apparent Molecular Weight Factor” value is 14.7 and the RH is given as 10.1 nm.

B2: pBC0114: base construct expressing BDD FVIII, pcDNA4-FVIII_4-…-Myc-SPATG-His, lacking XTEN insertions (protein)
chain: MQIELSTCFFLCLLRFCFSATRRYYLGAVELSWDYMQSDLGELPVDARFPPRVPKSFPFNTSVVYKKTLFVEFTDHLFNIAKPRPPWMGLLGPTIQAEVYDTVVITLKNMASHPVSLHAVGVSYWKASEGAEYDDQTSQREKEDDKVFPGGSHTYVWQVLKENGPMASDPLCLTYSYLSHVDLVKDLNSGLIGALLVCREGSLAKEKTQTLHKFILLFAVFDEGKSWHSETKNSLMQDRDAASARAWPKMHTVNGYVNRSLPGLIGCHRKSVYWHVIGMGTTPEVHSIFLEGHTFLVRNHRQASLEISPITFLTAQTLLMDLGQFLLFCHISSHQHDGMEAYVKVDSCPEEPQLRMKNNEEAEDYDDDLTDSEMDVVRFDDDNSPSFIQI
modifications: Myc and His tags
Consider B2, for which, in the data set with activation of factor X (activity (Chromogenix) per concentration (ELISA)), the “Specific Activity” value was 5000 IU/mg. Further, the Activity with activation of factor X (cell culture medium of transiently transfected Freestyle 293 cells, Chromogenix Coamatic Factor VIII assay) turned out to be 3.0 IU/ml.

B3: pBC 0114 (protein)
chain: B2 chain
B3: the values for the FVIII activity with FVIII activity (Sample A) and in the data set with FVIII activity (Sample B) were 6.68 IU/ml and 7.61 IU/ml, respectively.

B4: AC398 (protein)
chain: AVFVTQEEAHGVLHRRRRANAFLEELRPGSLERECKEEQCSFEEAREIFKDAERTKLFWISYSDGDQCASSPCQNGGSCKDQLQSYICFCLPAFEGRNCETHKDDQLICVNENGGCEQYCSDHTGTKRSCRCHEGYSLLADGVSCTPTVEYPCGKIPILEKRNASKPQGRIVGGKVCPKGECPWQVLLLVNGAQLCGGTLINTIWVVSAAHCFDKIKNWRNLIAVLGEHDLSEHDGDEQSRRVAQVIIPSTYVPGTTNHDIALLRLHQPVVLTDHVVPLCLPERTFSERTLAFVRFSLVSGWGQLLDRGATALELMVLNVPRLMTQDCLQQSRKVGDSPNITEYMFCAGYSDGSKDSCKGDSGGPHATHYRGTWYLTGIVSWGQGCATVGHFGVYTRVSQYIEWLQKLMRSEPRPGVLLRAPFPGSPGTSESATPESGPGSEPATSGSETPGTSESATPESGPGSEPATSGSETPGTSESATPESGPGTSTEPSEGSAPGSPAGSPTSTEEGTSESATPESGPGSEPATSGSETPGTSESATPESGPGSPAGSPTSTEEGSPAGSPTSTEEGTSTEPSEGSAPGTSESATPESGPGTSESATPESGPGTSESATPESGPGSEPATSGSETPGSEPATSGSETPGSPAGSPTSTEEGTSTEPSEGSAPGTSTEPSEGSAPGSEPATSGSETPGTSESATPESGPGTSTEPSEGSAPGSSS
With B4, in data set [1], the “Apparent MW” value stood at 650 kDa, the “Apparent Molecular Weight Factor” value is recorded as 8.5 and the RH was 8.2 nm.

The values are drawn from patent US20120178691A1, “FACTOR VIII COMPOSITIONS AND METHODS OF MAKING AND USING SAME” (Amunix Operating Inc., priority 2010, published 2012).
